In patent publication US20240199755A1, “ANTAGONISTS AND AGONISTS OF THE TRANSFERRIN RECEPTOR-2 FOR USE IN THE TREATMENT OF DISEASES OF THE BONE” (Kymab Limited, priority 2018, published 2024):

Molecular target: T1, Tfr2-ECD (Mus musculus, UniProt Q9JKX3)
T1 construct: full-length extracellular domain (ECD, aa 103-798) of murine Tfr2; His (N); MBP (N); c3 (protease site between MBP and ECD) (N); made in house; host or cells: Sf9 insect cells (baculovirus, pOCC211-Tfr2-ECD)
T1 sequence (Q9JKX3 103-798): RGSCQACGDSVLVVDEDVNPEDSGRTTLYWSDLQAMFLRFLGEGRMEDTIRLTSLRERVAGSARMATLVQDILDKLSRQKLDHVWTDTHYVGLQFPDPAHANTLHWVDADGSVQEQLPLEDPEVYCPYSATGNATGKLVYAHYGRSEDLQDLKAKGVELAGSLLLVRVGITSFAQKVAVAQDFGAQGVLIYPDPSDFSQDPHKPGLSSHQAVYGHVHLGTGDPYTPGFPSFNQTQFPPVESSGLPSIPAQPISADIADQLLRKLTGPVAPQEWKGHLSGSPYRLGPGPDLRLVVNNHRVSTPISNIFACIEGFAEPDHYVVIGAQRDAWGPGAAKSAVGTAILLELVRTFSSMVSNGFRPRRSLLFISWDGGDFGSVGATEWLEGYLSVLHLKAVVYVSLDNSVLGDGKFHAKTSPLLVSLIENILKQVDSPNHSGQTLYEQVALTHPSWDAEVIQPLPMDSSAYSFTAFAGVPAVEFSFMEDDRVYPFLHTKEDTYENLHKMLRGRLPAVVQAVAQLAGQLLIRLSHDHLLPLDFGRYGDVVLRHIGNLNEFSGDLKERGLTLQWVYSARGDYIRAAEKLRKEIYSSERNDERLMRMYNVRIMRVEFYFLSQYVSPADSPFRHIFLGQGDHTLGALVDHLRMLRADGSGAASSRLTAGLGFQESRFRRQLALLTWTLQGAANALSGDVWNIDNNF
Experiment: SPR binding of holo-Tf and BMP receptors to Tfr2-ECD immobilized on the sensor chip
Set-up: species or system murine
Conditions: 200 nM BMP receptors; binding level normalized to molecular weight
Experimental: For this purpose, Tfr2-ECD is immobilized on a Series S Sensor Chip C1 (GE Healthcare), by means of coupling the amino groups at 25° C. The carboxyl groups on the chip surface are activated for 7 minutes using a mixture of 196 mM 1-ethyl-3-(3-dimethylaminopropyl) carbodiimide-hydrochloride and 50 mM n-hydroxysuccinimide at a flow rate of 10 μl/min. Subsequently, 5 μg/ml Tfr2-ECD, diluted with sodium acetate buffer (pH 4.5), is injected at a flow rate of 5 μl/min up to a relative occupancy of 200 RU. Non-reacted groups are inactivated by injecting 1 M thanolamine-HCl (pH 8.5) for 7 minutes at a flow rate of 10 μl/min. In order to prepare a reference surface, the same procedure is carried out but without Tfr2-ECD being injected.
The binding assays are carried out at 37° C. at a flow rate of 30 μl/min. Each analyte is diluted by a running buffer (HBS-P, pH 7.4 together with 50 nM FeCl3). […] The values of the binding level are read out, relative to the baseline, 10 s before the end of the injection and are corrected with respect to the molar mass. […] The binding parameters are determined using the Biacore™ T100 evaluation software 2.03. […]
For binding analysis, an injection of analyte for 240 s or 300 s over a Tfr2-ECD surface was followed by 1000 s dissociation. The values of the binding levels were recorded from referenced signals 10 s before the end of injection relative to baseline response. […]

B1: BMPR-II: type II BMP receptor (R&D Systems) (protein, UniProt Q13873 27-1038, looked up)
Bone morphogenetic protein …: SQNQERLCAFKDPYQQDLGIGESRISHENGTILCSKGSTCYGLWEKSKGDINLVKQGCWSHIGDPQECHYEECVVTTTPPSIQNGTYRFCCCSTDLCNVNFTENFPPPDTTPLSPPHSFNRDETIIIALASVSVLAVLIVALCFGYRMLTGDRKQGLHSMNMMEAAASEPSLDLDNLKLLELIGRGRYGAVYKGSLDERPVAVKVFSFANRQNFINEKNIYRVPLMEHDNIARFIVGDERVTADGRMEYLLVMEYYPNGSLCKYLSLHTSDWVSSCRLAHSVTRGLAYLHTELPRGDHYKPAISHRDLNSRNVLVKNDGTCVISDFGLSMRLTGNRLVRPGEEDNAAISEVGTIRYMAPEVLEGAVNLRDCESALKQVDMYALGLIYWEIFMRCTDLFPGESVPEYQMAFQTEVGNHPTFEDMQVLVSREKQRPKFPEAWKENSLAVRSLKETIEDCWDQDAEARLTAQCAEERMAELMMIWERNKSVSPTVNPMSTAMQNERNLSHNRRVPKIGPYPDYSSSSYIEDSIHHTDSIVKNISSEHSMSSTPLTIGEKNRNSINYERQQAQARIPSPETSVTSLSTNTTTTNTTGLTPSTGMTTISEMPYPDETNLHTTNVAQSIGPTPVCLQLTEEDLETNKLDPKEVDKNLKESSDENLMEHSLKQFSGPDPLSSTSSSLLYPLIKLAVEATGQQDFTQTANGQACLIPDVLPTQIYPLPKQQNLPKRPTSLPLNTKNSTKEPRLKFGSKHKSNLKQVETGVAKMNTINAAEPHVVTVTMNGVAGRNHSVNSHAATTQYANGTVLSGQTTNIVTHRAQEMLQNQFIGEDTRLNINSSPDEHEPLLRREQQAGHDEGVLDRLVDRRERPLEGGRTNSNNNNSNPCSEQDVLAQGVPSTAADPGPSKPRRAQRPNSLDLSATNVLDGSSIQIGESTQDGKSGSGEKIKKRVKTPYSLKRWRPSTWVISTESLDCEVNNNGSNRAVHSKSSTAVYLAEGGTATTMVSKDIGMNCL
Q: For B1, which “Binding response of BMPRs to Tfr2-ECD compared with BMPs” value is on record?
A: weaker than BMPs
